Results: US20240132624A1 (Ablynx, published 2024)

B1: T0263018B11 T96E (VHH, name in Kabat numbering)
VHH: EVQLVESGGGVVQPGGSLRLSCAASGFTFSSYAMYWVRQAPGKGLEWVSAISSGGGSTDYADSVKGRFTISRDNSKNTLYLQMNSLRPEDTALYYCAADELYTSLTWYSYWGQGTLVTVSS
notes: FLAG3-His6 tagged
B2: T026301195 (bispecific antibody, name in Kabat numbering)
chain: DVQLVESGGGVVQPGGSLRLSCAASGFTFSEYDMYWVRQAPGKGLEWVSAISSGGGSTDYADSVKGRFTISRDNSKNTLYLQMNSLRPEDTALYYCAADTLYTSLTSYSYWGQGTLVTVSSGGGGSGGGGSGGGGSGGGGSGGGGSGGGGSGGGGSEVQLVESGGGVVQPGGSLRLSCAASGFTFRSFGMSWVRQAPGKGPEWVSSISGSGSDTLYADSVKGRFTISRDNSKNTLYLQMNSLRPEDTALYYCTIGGSLSRSSQGTLVTVSSA
notes: bispecific ISVD construct; also called T0263018B11(E1D, S31E, A33D, W100cS)-35GS-ALB23002-A

Key:
[1] = molecular target: T1, cyno FcRn/b2M (cyno, UniProt Q8SPV9 24-297; Q8SPW0 21-119, biotinylated); experiment: SPR pH 6.0; pH 6.0; off-rate of periplasmic extract, cyno FcRn
T1 construct: bought recombinant biotinylated protein (Immunitrack ITF05 or ACRO FCM-C82W5); also called cFcRn; cFcRn/cb2M
Description: (§1) All kinetic measurements have been performed on ProteOn XPR36 (BioRad Laboratories, Inc.), MASS-2 (Sierra sensors, Gmbh) or SPR-32 (Bruker Corporation). […] The phytip purified periplasmic extracts were diluted 1:10 in running buffer (CPA+150 mM NaCl+0.005% Tw20 at pH 5.5, pH 6.0 or pH 7.4) and injected over the ligand surfaces (association: 120 s at 45 μL/min; dissociation: 600s-3600 s at 45 μL/min). Experiments were carried out at 25° C.

[2] = molecular target: T2, human FcRn/b2M (human, UniProt P61769 21-119, biotinylated); experiment: SPR pH 6.0; pH 6.0; off-rate of periplasmic extract, human FcRn
T2 construct: bought recombinant biotinylated protein (ACRO FCM-H82W4 or Immunitrack ITF01); also called hFcRn; hFcRn/hb2M
Description: as §1

[3] = molecular target: T2, human FcRn/b2M; experiment: SPR pH 6.0; pH 6.0; human FcRn
Description: (§2) The affinity of the purified, multivalent ISVD constructs for human and cyno FcRn was determined on the MASS-2 (Sierra sensors, Gmbh) instrument, hFcRn/hb2M and cFcRn/cb2M was captured on a Biotin-tag Capture Chip or a High Capacity Amine Chip (pre-immobilized with neutravidin). The ISVD constructs were injected at 6 different concentrations (between 1 and 4000 nM) and allowed to associate for 120 s at 45 μL/min and dissociate for 600 s-3600 s at 45 μL/min. […] Evaluation of the sensorgrams was based on the 1:1 Langmuir dissociation model simultaneously fitting on and off-rates.

[4] = molecular target: T1, cyno FcRn/b2M; experiment: SPR pH 6.0; pH 6.0; cyno FcRn
Description: as §2

[5] = molecular target: T3, mouse serum albumin (mouse, UniProt P07724 25-608); experiment: SPR pH 6.0
T3 construct: also called MSA
Description: (§3) The affinity of the purified, multivalent ISVD constructs for human and mouse serum albumin (HSA and MSA, respectively) was determined on the ProteOn XPR36 (BioRad Laboratories, Inc.) instrument. […] The ISVD constructs were injected at 6 different concentrations (between 1 and 500 nM) and allowed to associate for 120 s at 45 μL/min and dissociate for 600s-3600s at 45 μL/min. Evaluation of the sensorgrams was based on the 1:1 Langmuir dissociation model simultaneously fitting on and off-rates.

[6] = molecular target: T4, human serum albumin (human, UniProt P02768 25-609); experiment: SPR pH 6.0
T4 construct: also called HSA
Description: as §3

[7] = molecular target: T3, mouse serum albumin; experiment: SPR pH 7.4
Description: as §3

[8] = molecular target: T4, human serum albumin; experiment: SPR pH 7.4
Description: as §3

T1 sequence (Q8SPV9 24-297 limits assumed, chain 1 of 2): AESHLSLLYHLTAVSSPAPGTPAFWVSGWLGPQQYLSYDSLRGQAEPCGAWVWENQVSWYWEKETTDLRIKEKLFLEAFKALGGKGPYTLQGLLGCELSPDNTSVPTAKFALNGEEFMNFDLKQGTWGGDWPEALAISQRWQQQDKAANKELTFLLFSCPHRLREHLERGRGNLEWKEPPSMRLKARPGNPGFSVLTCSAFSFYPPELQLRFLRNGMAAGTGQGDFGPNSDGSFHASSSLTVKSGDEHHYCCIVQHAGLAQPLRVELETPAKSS
T1 sequence (Q8SPW0 21-119 limits assumed, chain 2 of 2): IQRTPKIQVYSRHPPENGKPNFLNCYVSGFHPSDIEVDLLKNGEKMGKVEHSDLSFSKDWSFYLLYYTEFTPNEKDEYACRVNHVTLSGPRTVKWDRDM
T2 sequence (chain, as listed by the source limits assumed, chain 1 of 2): as the sequence (Q8SPV9 24-297 limits assumed, chain 1 of 2) above, with D39N, Q44E, S99G, G189S, N190S, M217L, T269S counted along it
T2 sequence (P61769 21-119 limits assumed, chain 2 of 2): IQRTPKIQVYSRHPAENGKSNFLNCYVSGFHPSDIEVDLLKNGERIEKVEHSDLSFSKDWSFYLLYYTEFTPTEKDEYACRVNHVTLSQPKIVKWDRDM
T3 sequence (P07724 25-608 limits assumed): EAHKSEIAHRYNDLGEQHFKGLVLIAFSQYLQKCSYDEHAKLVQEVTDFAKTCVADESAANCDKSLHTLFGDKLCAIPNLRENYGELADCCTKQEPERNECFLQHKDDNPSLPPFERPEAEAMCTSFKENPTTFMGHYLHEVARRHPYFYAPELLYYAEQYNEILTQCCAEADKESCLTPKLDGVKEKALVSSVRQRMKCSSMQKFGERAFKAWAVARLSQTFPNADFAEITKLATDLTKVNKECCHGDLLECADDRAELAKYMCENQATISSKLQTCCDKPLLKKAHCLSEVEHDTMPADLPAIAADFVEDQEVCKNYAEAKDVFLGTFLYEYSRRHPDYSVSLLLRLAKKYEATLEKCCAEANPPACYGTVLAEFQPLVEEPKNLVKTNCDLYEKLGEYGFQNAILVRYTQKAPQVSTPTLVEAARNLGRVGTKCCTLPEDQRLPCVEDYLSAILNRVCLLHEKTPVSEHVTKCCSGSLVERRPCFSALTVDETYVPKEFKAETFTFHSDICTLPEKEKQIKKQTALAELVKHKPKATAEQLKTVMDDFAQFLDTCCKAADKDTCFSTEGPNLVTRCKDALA

Binder | koff [1] | koff [2] | Kd [3] | Kd [4] | Kd [5] | Kd [6] | Kd [7] | Kd [8]
B1 | 0.0093 s⁻¹ | 0.012 s⁻¹ |  |  |  |  |  | 
B2 |  |  | 680 nM | 670 nM | 77 nM | 6.1 nM | 120 nM | 13 nM
